From patent US20150218239A1 (ARGENX, published 2015) come the findings set out here.

For assay [1], the target named is T1, murine CD16-2 (Sino Biological Inc., 50036-M27H-B) (murine, UniProt A0A0B4J1G0 21-203, Probably biotinylated on a vendor tag (suffix -B); not given).
T1 construct: Bought reagent, used in 'a similar experimental procedure' to the hCD16a ELISA; also called mCD16-2
T1 sequence: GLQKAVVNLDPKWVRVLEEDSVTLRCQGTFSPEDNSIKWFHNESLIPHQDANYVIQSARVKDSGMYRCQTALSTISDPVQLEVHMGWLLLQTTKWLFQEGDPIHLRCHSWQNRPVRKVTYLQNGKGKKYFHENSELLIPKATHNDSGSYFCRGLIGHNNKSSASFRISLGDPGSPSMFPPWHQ
As to the kind of experiment: ELISA on murine CD16-2, similar procedure to the hCD16a ELISA. As to the method:
(§1) Specifically, a Maxisorp plate was coated with 100 ng/well of Neutravidin Biotin-binding Protein (ThermoScientific, 31000) and incubated overnight at 4° C. The following day, the plate was blocked with PBS+1% casein for 2 hours at room temperature. […] Binding to hCD16a was detected using an HRP-conjugated polyclonal goat anti-human Fc antibody (Jackson ImmunoResearch, 109-035-008) (incubation 1 hour at RT, dilution 1/50,000 in PBS+0.1% casein), followed by addition of […] room temperature-equilibrated TMB (SDT-reagents #s TMB). Plates were incubated for 10 minutes prior to addition of 100 μl 0.5N H₂SO₄ and OD450 nm measurement. EC50 values were determined using GraphPad Prism software.
Using a similar experimental procedure as described above, the binding affinity for murine CD16-2 (Sino Biological Inc., 50036-M27H-B) was determined.
For orientation: An ELISA detects its analyte on a solid surface through an enzyme-linked reagent.

The target of assay [2] is T2, biotinylated hCD16a (Sino Biological Inc., 10389-H27H1-B) (human, UniProt P08637 17-208, biotinylated).
T2 construct: Bought reagent, captured on a neutravidin-coated plate; also called human CD16a
T2 sequence (P08637 17-208 limits assumed): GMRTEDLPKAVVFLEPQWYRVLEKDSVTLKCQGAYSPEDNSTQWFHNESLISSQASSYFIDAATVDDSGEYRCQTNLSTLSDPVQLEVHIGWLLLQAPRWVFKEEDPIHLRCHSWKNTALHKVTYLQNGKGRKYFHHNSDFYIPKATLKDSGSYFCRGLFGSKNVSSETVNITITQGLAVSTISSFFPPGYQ
Nature of the assay: ELISA on biotinylated hCD16a captured on neutravidin; anti-human Fc-HRP detection. As to the method: as §1

B1: Fc-Abdeg-POT (other)
chain: DKTHTCPPCPAPELLGGPSVFLFPPKPKDTLYITREPEVTCVVVDVSHEDPEVKFNWYVDGVEVHNAKTKPREEQYNSTYRVVSVLTVLHQDWLNGKEYKCKVSNKALPAPIEKTISKAKGQPREPQVYTLPPSRDELTKNQVSLTCLVKGFYPSDIAVEWESNGQPENNYKTTPPVLDSDGSFFLYSKLTVDKSRWQQGNVFSCSVMHEALKFHYTQKSLSLSPGK
modifications: afucosylated N-linked glycan (afucosylated form of Fc-Abdeg)
notes: also called afucosylated form of Fc-Abdeg; afucosylated variant
Turning to B1, in assay [1], the EC50 (as a rule, the concentration at which the effect is half-maximal) was 11 nM. In assay [2], the response was half-maximal at 13 nM (EC50) and the “fold increase in affinity over fucosylated Fc-Abdeg” value was above 30 fold.

B2: Fc-Abdeg-S239D/I332E (other)
chain: DKTHTCPPCPAPELLGGPDVFLFPPKPKDTLYITREPEVTCVVVDVSHEDPEVKFNWYVDGVEVHNAKTKPREEQYNSTYRVVSVLTVLHQDWLNGKEYKCKVSNKALPAPEEKTISKAKGQPREPQVYTLPPSRDELTKNQVSLTCLVKGFYPSDIAVEWESNGQPENNYKTTPPVLDSDGSFFLYSKLTVDKSRWQQGNVFSCSVMHEALKFHYTQKSLSLSPGK
notes: Fc-Abdeg variant
The molecule B2 returned a 50% effective concentration (EC50) in assay [2] of 6 nM.
